# B1: Tight junction protein 2 (Homo sapiens), Q9UDY2-3 (parent)
# chain: MEELIWEQYTVTLQKDSKRGFGIAVSGGRDNPHFENGETSIVISDVLPGGPADGLLQENDRVVMVNGTPMEDVLHSFAVQQLRKSGKVAAIVVKRPRKVQVAALQASPPLDQDDRAFEVMDEFDGRSFRSGYSERSRLNSHGGRSRSWEDSPERGRPHERARSRERDLSRDRSRGRSLERGLDQDHARTRDRSRGRSLERGLDHDFGPSRDRDRDRSRGRSIDQDYERAYHRAYDPDYERAYSPEYRRGARHDARSRGPRSRSREHPHSRSPSPEPRGRPGPIGVLLMKSRANEEYGLRLGSQIFVKEMTRTGLATKDGNLHEGDIILKINGTVTENMSLTDARKLIEKSRGKLQLVVLRDSQQTLINIPSLNDSDSEIEDISEIESNRSFSPEERRHQYSDYDYHSSSEKLKERPSSREDTPSRLSRMGATPTPFKSTGDIAGTVVPETNKEPRYQEDPPAPQPKAAPRTFLRPSPEDEAIYGPNTKMVRFKKGDSVGLRLAGGNDVGIFVAGIQEGTSAEQEGLQEGDQILKVNTQDFRGLVREDAVLYLLEIPKGEMVTILAQSRADVYRDILACGRGDSFFIRSHFECEKETPQSLAFTRGEVFRVVDTLYDGKLGNWLAVRIGNELEKGLIPNKSRAEQMASVQNAQRDNAGDRADFWRMRGQRSGVKKNLRKSREDLTAVVSVSTKFPAYERVLLREAGFKRPVVLFGPIADIAMEKLANELPDWFQTAKTEPKDAGSEKSTGVVRLNTVRQIIEQDKHALLDVTPKAVDLLNYTQWFPIVIFFNPDSRQGVKTMRQRLNPTSNKSSRKLFDQANKLKKTCAHLFTATINLNSANDSWFGSLKDTIQHQQGEAVWVSEGKMEGMDDDPEDRMSYLTAMGADYLSCDSRLISDFEDTDGEGGAYTDNELDEPAEEPLVSSITRSSEPVQHEESIRKPSPEPRAQMRRAASSDQLRDNSPPPAFKPEPPKAKTQNKEESYDFSKSYEYKSNPSAVAGNETPGASTKGYPPPVAAKPTFGRSILKPSTPIPPQEGEEVGESSEEQDNAPKSVLGKVKIFEKMDHKARLQRMQELQEAQNARIEIAQKHPDIYAVPIKTHKPDPGTPQHTSSRPPEPQKAPSRPYQDTRGSYGSDAEEEEYRQQLSEHSKRGYYGQSARYRDTEL
# partner: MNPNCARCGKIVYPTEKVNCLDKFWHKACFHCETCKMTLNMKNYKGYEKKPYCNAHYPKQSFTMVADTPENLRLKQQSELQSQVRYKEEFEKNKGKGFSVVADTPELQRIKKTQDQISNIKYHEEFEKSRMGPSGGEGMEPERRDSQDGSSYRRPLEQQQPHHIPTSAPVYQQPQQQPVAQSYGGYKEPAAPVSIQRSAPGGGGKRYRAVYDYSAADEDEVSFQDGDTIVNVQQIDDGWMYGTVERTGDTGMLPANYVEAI
# Variants of: B1
# Conditions: with lasp1_human LASP1, Q14847
row,Variant,effect of a mutation on the interaction
1,P1106A;P1116A,disrupting interaction strength
2,P1106A,decreasing interaction

# Reference: IntAct's records for PubMed 22665060
